Data on one molecule can be found in article PMC11591715 (2024).

As usually defined, the Kd is a measure of binding affinity in units of concentration. Broadly, the koff is the rate constant with which the complex falls apart.

Assay in all cases: BLI
Test [1] addresses T1, m801.3 (anti-EpCAM-IL-2v immunocytokine, 1 anti-EpCAM Fab + 1 IL-2v, IL-2v fused at the N-terminus of the Fc … ( | human, UniProt P60568 21-153, F42A | Y45A | L72G)).
Test [2] concerns the target m801.2 (anti-EpCAM-IL-2v immunocytokine, 2 anti-EpCAM Fab + 1 IL-2v, IL-2v fused at the C-terminus of IgG1 Fc) (human | , UniProt P60568 21-153, F42A | Y45A | L72G).
The target of test [3] is T1, m801.3 (anti-EpCAM-IL-2v …). This is another data set of the same source.

B1: IL-2 receptor β subunit (IL-2Rβ) (receptor)
chain: AVNGTSQFTCFYNSRANISCVWSQDGALQDTSCQVHAWPDRRRWNQTCELLPVSQASWACNLILGAPDSQKLTTVDIVTLRVLCREGVRWRVMAIQDFKPFENLRLMAPISLQVVHVETHRCNISWEISQASHYFERHLEFEARTLSPGHTWEEAPLLTLKQKQEWICLETLTPDTQYEFQVRVKPLQGEFTTWSPWSQPLAFRTKPAALGKDTIPWLGHLLVGLSGAFGFIILVYLLINCRNTGPWLKKVLKCNTPDPSKFFSQLSSEHGGDVQKWLSSPFPSSSFSPGGLAPEISPLEVLERDKVTQLLLQQDKVPEPASLSSNHSLTSCFTNQGYFFFHLPDALEIEACQVYFTYDPYSEEDPDEGVAGAPTGSSPQPLQPLSGEDDAYCTFPSRDDLLLFSPSLLGGPSPPSTAPGGSGAGEERMPPSLQERVPRDWDPQPLGPPTPGVPDLVDFQPPPELVLREAGEEVPDAGPREGVSFPWSRPPGQGEFRALNARLPLNTDAYLSLQELQGQDPTHLV
modifications: biotin (biotinylated antigen)
Regarding B1, the equilibrium dissociation constant (Kd) in test [1] is 55.6 nM. For the same molecule, the koff amounted to 0.00412 s⁻¹ in test [2] and 0.00784 s⁻¹ in test [3].
